Laboratory results as given in patent publication US7001748B2, “Methods of making polyketides using hybrid polyketide synthases” (The Board of Trustees of the Leland Stanford Junior …, priority 1999, dated 2006).
Where “and” joins values, the source holds several entries; their conditions need not be identical. Equal values may be shown once. Read-outs that look alike come from different tables or passages of the source.

Legend:
module 5+TE = biological target: T1, module 5+TE (Saccharopolyspora erythraea, UniProt Q03133); details: diffusive loading, shown earlier; cited from earlier work
T1 construct: a single module of the DEBS PKS fused to the thioesterase (TE) termination region of module 6; thioesterase (TE) domain of DEBS (end of the same DEBS3 polypeptide); made in house; host or cells: E. coli BL21(DE3) co-expressing B. subtilis sfp

[1] = system: (5)M2+TE, (5)M5+TE, and (5)M6+TE; details: Wu et al. 2000; cited from earlier work
(5)M3+TE [2] = biological target: T2, (5)M3+TE (Saccharopolyspora erythraea, UniProt Q03132+Q03133); details: previously shown; cited from earlier work
T2 construct: (5)M3+TE: module 3 with N-terminal linker from module 5; N-terminal interpolypeptide linker of DEBS module 5 (start of DEBS3, Q03133); His6 (C); made in house; host or cells: E. coli BL21(DE3) co-expressing B. subtilis sfp

(3)M3+TE = biological target: T3, (3)M3+TE (Saccharopolyspora erythraea, UniProt Q03132+Q03133); details: previously shown; cited from earlier work
T3 construct: encodes module 3 of DEBS (M3) with its own N-terminal linker and with the thioesterase fused to the C-terminus; natural N-terminal interpolypeptide linker of module 3 (start of DEBS2, ahead of the Module 3 feature); His6 (C); made in house; host or cells: E. coli BL21(DE3) co-expressing B. subtilis sfp

M3+TE [3] = biological target: T4, M3+TE (Saccharopolyspora erythraea, UniProt Q03132+Q03133); details: cited from earlier work
T4 construct: encodes module 3 of DEBS (M3) with its own N-terminal linker and with the thioesterase fused to the C-terminus; natural N-terminal interpolypeptide linker of module 3 (start of DEBS2, ahead of the Module 3 feature); His6 (C); made in house; host or cells: E. coli BL21(DE3) co-expressing B. subtilis sfp

[4] = Cell-free synthesis of triketides from diketide thioester by single module constructs; assay type: biochemical; details: purified protein, after 30 minutes
Description: (§1) A cell-free system, tested for the ability to convert the cysteamine thioester of 2S,3R-2-methyl-3-hydroxypentanoic acid (compound 2 in FIG. 2), consisted of 0.5-10 mM concentration of the thioester, 2.5 mM ^14C-labeled methylmalonyl CoA and 100 pmoles of purified protein prepared in Example 1 in a 100 μl reaction. In some cases, 1 mM of NADPH was added; this was done in assay mixtures containing (M2+TE), (M5+TE) and (M6+TE) proteins. The protein was, in each case, a single module of the DEBS PKS fused to the thioesterase (TE) termination region of module 6.
(§2) The reaction mixtures were quenched and extracted by ethyl acetate and separated by thin-layer chromatography (TLC) to discern the formation of the triketide ketolactone 3 and triketide lactone 4 (both shown in FIG. 2) after 30 minutes.

[5] = Kinetic constants kcat and KM for converting diketide to triketide (cell-free system); assay type: biochemical
Description: as §1, §2
The various constructs which are successful in converting diketide to triketide were then evaluated for the kinetic constants kcat and KM. […] This is evidently due to the absence of beta-carbonyl modifying enzymes in module 3 as verified by the fact that removal of NADPH, (which is required for the activity of such modules) from the reaction mixture of (N-ERL-M6+TE) also results in a lowering of the kcat.

[6] = Kinetic analysis of individual modules with natural diketide (NDK); assay type: biochemical; details: NDK as substrate, 30° C., saturating NADPH and methylmalonyl-CoA
Description: In Vitro Polyketide Production. Assays of individual modules contained 1.0 μM protein, 1-10 mM N-acetylcysteamine thioester of the “natural” (2S,3R)-2-methyl-3-hydroxypentanoic acid diketide (NDK) (1), 4 mM NADPH, 440 mM sodium phosphate, 1 mM EDTA, 2.5 mM dithiothreitol (DTT), and 20% w/v glycerol, pH 7.2, in 80 μL. Reactions with M2 or M2(4) included 0.3 mM ^14C-methylmalonyl-CoA (specific activity adjusted to 10.4 mCi/mmol), and those with M3+TE or (5)M3+TE included 0.5 mM ^14C-methylmalonyl-CoA (specific activity reduced to 1.1 mCi/mmol). [M2(4) refers to a derivative of M2 in which the C-terminal linker has been replaced with its counterpart from module 4, whereas (5)M3 refers to a derivative of M3 in which the N-terminal linker has been replaced with its counterpart from module 5 (see FIG. 4).] […] Product formation was quantified by comparison with standards of the labeled methylmalonyl-CoA. […]
Kinetic Analysis. For individual modules, the steady-state turnover number was determined from the time course of triketide formation, normalized to the concentration of protein. The dependence of the rate on substrate concentration was measured by varying the concentration of NDK while maintaining saturating levels of NADPH and methylmalonyl-CoA.

M3+TE [7] = biological target: T4, M3+TE; assay: Tetraketide lactone 2 formation, coincubation of donor module with M3+TE; assay type: biochemical
Description: (§3) Assays of M2 and M3+TE contained 1.0 μM M2 and 0.4-4 μM M3+TE, 7 mM NDK, 0.5 mM ^14C-methylmalonyl-CoA (specific activity reduced to 3.4 mCi/mmol), 4 mM NADPH, 440 mM sodium phosphate, 1 mM EDTA, 2.5 mM DTT, and 20% w/v glycerol, pH 7.2, in 70 μL. Assays of M2(4) and (5)M3+TE were identical, except they contained 0.5 μM M2(4), 0.5-5 μM (5)M3+TE, and 0.4 mM ^14C-methylmalonyl-CoA (specific activity reduced to 6.2 mCi/mmol). The concentration of M2(4) was limiting in order to facilitate its saturation with (5)M3+TE. The reactions were prewarmed at 30° C. and initiated by the addition of the methylmalonyl-CoA. As described above, 20 μL aliquots were removed at various time points and processed. Extracts loaded onto TLC plates were separated using either 80% ethyl acetate in hexanes or 5% methanol in dichloromethane, both of which allowed identification of the tetraketide lactone 2 and the triketide lactones 3 and 4.
(§4) For tetraketide formation, the rate of production of tetraketide was recorded for varying concentrations of M3+TE [or (5)M3+TE] at a fixed concentration of M2 [or M2(4)] and saturating concentrations of substrates. By fitting the rate dependence of tetraketide to a saturation curve, the maximal velocity (νmax) of tetraketide production was determined, and was assumed to represent the case where every M2 homodimer was productively associated with an M3+TE homodimer. Thus, the affinity of this protein-protein interaction could be calculated from the rate of tetraketide formation, as represented in Equation 1 ν=kcat[M2-M3] (1) ([M2], [M3], and [M2-M3] refer to the concentrations of M2, unbound M3+TE, and the M2/M3+TE complex, respectively). Since [M2-M3] is related to the KD of M2 and M3+TE as shown in Equation 2, [formula] which can be rearranged to yield Equation 3, [formula] where [M2]0=total concentration of M2, the velocity of tetraketide production can be defined relative to the KD: [formula] where ν=kcat[M2-M3] and νmax=kcat[M2]0. […]

(5)M3+TE [8] = biological target: T2, (5)M3+TE; assay: Tetraketide lactone 2 formation, coincubation of donor module with (5)M3+TE; assay type: biochemical
Description: as §3, §4

Compound: CCC(O)C(C)C(=O)SCCNC(C)=O (stereo not drawn) [2b]
- kcat (elongation rate constant), NAC thioester substrate (module 5+TE): 0.00033 s⁻¹
- incorporation of NAC thioester (qualitative) [1]: substrates for the three modules
- incorporation of NAC thioester (qualitative) ((5)M3+TE [2]): readily incorporated and elongated
- incorporation of NAC thioester (qualitative) ((3)M3+TE): readily incorporated and elongated

Compound: CCC(O)C(C)C(=O)SCCNC(C)=O (stereo not drawn) [2c]
- incorporation of NAC thioester (qualitative) [1]: no turnover

Compound: CCC(O)C(C)C(=O)SCCNC(C)=O (stereo not drawn) [2d]
- incorporation of NAC thioester (qualitative) [1]: no turnover

Compound: DEBS1: first protein of 6-deoxyerythronolide B synthase, loading module and extender modules 1 and 2
- Kd (M3+TE [3]; Gokhale et al. 1999, read-out: KD, previously reported value): 2.6 µM
- rate of formation of the same tetraketide, earlier measurement (M3+TE [3]; Pieper et al. 1997): 0.23 min^−

Compound: ERL − M2 + TE: module 2+TE carrying the upstream 39 amino acids (N-ERL) from module 5
- Triketide Formed [4]: Yes
- Triketide Formed ([4]; listed as (N-ERL-M2+TE)): able to produce the triketide product
- Km ([5]; diketide to triketide): 4.6 ± 0.4 mM
- kcat × 100 ([5]; diketide to triketide): 8 ± 0.6 min^−1

Compound: ERL − M6 + TE: module 6+TE carrying the upstream 39 amino acids (N-ERL) from module 5
- Triketide Formed [4]: Yes
- Triketide Formed ([4]; listed as (N-ERL-M6+TE)): able to produce the triketide product
- Km ([5]; (− NADPH)): 4.1 ± 0.4 mM
- kcat × 100 ([5]; (− NADPH)): 4.5 ± 0.7 min^−1
- Km ([5]; diketide to triketide): 4.3 ± 0.4 mM
- kcat × 100 ([5]; diketide to triketide): 9.5 ± 0.6 min^−1

Compound: M2(4): derivative of M2 containing the C-terminal linker of DEBS module 4
- kcat [6]: ~0.0005 s⁻¹
- highest rate constants that could be measured, tetraketide lactone 2 (M3+TE [7]; mismatched linker pair): 0.02 to 0.03 min⁻¹
- kcat (saturating rate) of tetraketide lactone 2 formation ((5)M3+TE [8]; fixed donor, variable (5)M3+TE): 0.0123 ± 0.001 s⁻¹ and 0.0123 s⁻¹
- Kd ((5)M3+TE [8]; from saturation curve): 2.1 ± 0.4 µM

Compound: M2: module 2 of DEBS, thioesterase replaced with the natural C-terminal linker for module 2
- kcat [6]: ~0.00033 s⁻¹
- Kd (M3+TE [7]; estimated from saturation curve): 1.1 ± 0.1 µM
- kcat (maximum / saturating rate constant) of tetraketide lactone 2 formation (M3+TE [7]; fixed donor, variable M3+TE, 7 mM NDK): 0.0045 ± 0.00017 s⁻¹ and 0.0045 s⁻¹
- highest rate constants that could be measured, tetraketide lactone 2 ((5)M3+TE [8]; mismatched linker pair): 0.02 to 0.03 min⁻¹

Compound: M5 + TE: single module 5 of DEBS fused to the thioesterase (TE) domain
- Triketide Formed [4]: Yes
- Triketide Formed ([4]; listed as (M5+TE)): expected triketides were formed
- Km ([5]; diketide to triketide): 4.7 ± 0.4 mM
- kcat × 100 ([5]; diketide to triketide): 7.5 ± 0.7 min^−1
